{"source": "patent US20240124553A1", "experiment_in_all_cases": "flow cytometry, transfected 293T cells", "key": {"[1]": {"biological_target": "CHIKV E2-E1 envelope glycoproteins (strain S27), E2 mutant V32A (chikungunya virus strain S27) (UniProt Q8JUX5)"}, "[2]": {"biological_target": "CHIKV E2-E1 envelope glycoproteins (strain S27), E2 mutant L46A (chikungunya virus strain S27) (UniProt Q8JUX5)"}, "[3]": {"biological_target": "CHIKV E2-E1 envelope glycoproteins (strain S27), E2 mutant Y69A (chikungunya virus strain S27) (UniProt Q8JUX5)"}, "[4]": {"biological_target": "CHIKV E2-E1 envelope glycoproteins (strain S27), E2 mutant L83A (chikungunya virus strain S27) (UniProt Q8JUX5)"}, "[5]": {"biological_target": "CHIKV E2-E1 envelope glycoproteins (strain S27), E2 mutant T96A (chikungunya virus strain S27) (UniProt Q8JUX5)"}, "[6]": {"biological_target": "CHIKV E2-E1 envelope glycoproteins (strain S27), E2 mutant P90A (chikungunya virus strain S27) (UniProt Q8JUX5)"}, "[7]": {"biological_target": "CHIKV E2-E1 envelope glycoproteins (strain S27), E2 mutant D71A (chikungunya virus strain S27) (UniProt Q8JUX5)"}, "[8]": {"biological_target": "CHIKV E2-E1 envelope glycoproteins (strain S27), E2 mutant D77A (chikungunya virus strain S27) (UniProt Q8JUX5)"}, "[9]": {"biological_target": "CHIKV E2-E1 envelope glycoproteins (strain S27), E2 mutant R36A (chikungunya virus strain S27) (UniProt Q8JUX5)"}, "[10]": {"biological_target": "CHIKV E2-E1 envelope glycoproteins (strain S27), E2 mutant H123A (chikungunya virus strain S27) (UniProt Q8JUX5)"}, "[11]": {"biological_target": "CHIKV E2-E1 envelope glycoproteins (strain S27), E2 mutant I101A (chikungunya virus strain S27) (UniProt Q8JUX5)"}, "[12]": {"biological_target": "CHIKV E2-E1 envelope glycoproteins (strain S27), E2 mutant S61A (chikungunya virus strain S27) (UniProt Q8JUX5)"}, "[13]": {"biological_target": "CHIKV E2-E1 envelope glycoproteins (strain S27), E2 mutant T116A (chikungunya virus strain S27) (UniProt Q8JUX5)"}, "[14]": {"biological_target": "CHIKV E2-E1 envelope glycoproteins (strain S27), E2 mutant D132A (chikungunya virus strain S27) (UniProt Q8JUX5)"}, "[15]": {"biological_target": "CHIKV E2-E1 envelope glycoproteins (strain S27), E2 mutant L67A (chikungunya virus strain S27) (UniProt Q8JUX5)"}, "[16]": {"biological_target": "CHIKV E2-E1 envelope glycoproteins (strain S27), E2 mutant S51A (chikungunya virus strain S27) (UniProt Q8JUX5)"}, "[17]": {"biological_target": "CHIKV E2-E1 envelope glycoproteins (strain S27), E2 mutant G114A (chikungunya virus strain S27) (UniProt Q8JUX5)"}, "[18]": {"biological_target": "CHIKV E2-E1 envelope glycoproteins (strain S27), E2 mutant L52A (chikungunya virus strain S27) (UniProt Q8JUX5)"}, "[19]": {"biological_target": "CHIKV E2-E1 envelope glycoproteins (strain S27), E2 mutant A103S (chikungunya virus strain S27) (UniProt Q8JUX5)"}, "[20]": {"biological_target": "CHIKV E2-E1 envelope glycoproteins (strain S27), E2 mutant G98A (chikungunya virus strain S27) (UniProt Q8JUX5)"}, "[21]": {"biological_target": "CHIKV E2-E1 envelope glycoproteins (strain S27), E2 mutant C125A (chikungunya virus strain S27) (UniProt Q8JUX5)"}, "[22]": {"biological_target": "CHIKV E2-E1 envelope glycoproteins (strain S27), E2 mutant T65A (chikungunya virus strain S27) (UniProt Q8JUX5)"}, "[23]": {"biological_target": "CHIKV E2-E1 envelope glycoproteins (strain S27), E2 mutant L111A (chikungunya virus strain S27) (UniProt Q8JUX5)"}, "[24]": {"biological_target": "CHIKV E2-E1 envelope glycoproteins (strain S27), E2 mutant D60A (chikungunya virus strain S27) (UniProt Q8JUX5)"}, "[25]": {"biological_target": "CHIKV E2-E1 envelope glycoproteins (strain S27), E2 mutant S88A (chikungunya virus strain S27) (UniProt Q8JUX5)"}, "[26]": {"biological_target": "CHIKV E2-E1 envelope glycoproteins (strain S27), E2 mutant C105A (chikungunya virus strain S27) (UniProt Q8JUX5)"}, "[27]": {"biological_target": "CHIKV E2-E1 envelope glycoproteins (strain S27), E2 mutant N39A (chikungunya virus strain S27) (UniProt Q8JUX5)"}, "[28]": {"biological_target": "CHIKV E2-E1 envelope glycoproteins (strain S27), E2 mutant F115A (chikungunya virus strain S27) (UniProt Q8JUX5)"}, "[29]": {"biological_target": "CHIKV E2-E1 envelope glycoproteins (strain S27), E2 mutant V113A (chikungunya virus strain S27) (UniProt Q8JUX5)"}, "[30]": {"biological_target": "CHIKV E2-E1 envelope glycoproteins (strain S27), E2 mutant G79A (chikungunya virus strain S27) (UniProt Q8JUX5)"}, "[31]": {"biological_target": "CHIKV E2-E1 envelope glycoproteins (strain S27), E2 mutant D43A (chikungunya virus strain S27) (UniProt Q8JUX5)"}, "[32]": {"biological_target": "CHIKV E2-E1 envelope glycoproteins (strain S27), E2 mutant I74A (chikungunya virus strain S27) (UniProt Q8JUX5)"}, "[33]": {"biological_target": "CHIKV E2-E1 envelope glycoproteins (strain S27), E2 mutant E109A (chikungunya virus strain S27) (UniProt Q8JUX5)"}}, "data": [{"substance": "CHIKV mAb C9 (antibody)", "values": [{"measurement": "Binding Reactivity (% WT)", "setting": "[1]", "result": 44, "unit": "% WT"}, {"measurement": "Binding Reactivity (% WT)", "setting": "[2]", "result": 1.7, "unit": "% WT"}, {"measurement": "Binding Reactivity (% WT)", "setting": "[3]", "result": 55.3, "unit": "% WT"}, {"measurement": "Binding Reactivity (% WT)", "setting": "[4]", "result": 18.7, "unit": "% WT"}, {"measurement": "Binding Reactivity (% WT)", "setting": "[5]", "result": 99.2, "unit": "% WT"}, {"measurement": "Binding Reactivity (% WT)", "setting": "[6]", "result": 100, "unit": "% WT"}, {"measurement": "Binding Reactivity (% WT)", "setting": "[7]", "result": 91.8, "unit": "% WT"}, {"measurement": "Binding Reactivity (% WT)", "setting": "[8]", "result": 93.3, "unit": "% WT"}, {"measurement": "Binding Reactivity (% WT)", "setting": "[9]", "result": 75.4, "unit": "% WT"}, {"measurement": "Binding Reactivity (% WT)", "setting": "[10]", "result": 53.6, "unit": "% WT"}, {"measurement": "Binding Reactivity (% WT)", "setting": "[11]", "result": 26.6, "unit": "% WT"}, {"measurement": "Binding Reactivity (% WT)", "setting": "[12]", "result": 93.1, "unit": "% WT"}, {"measurement": "Binding Reactivity (% WT)", "setting": "[13]", "result": 98.2, "unit": "% WT"}, {"measurement": "Binding Reactivity (% WT)", "setting": "[14]", "result": 94.4, "unit": "% WT"}, {"measurement": "Binding Reactivity (% WT)", "setting": "[15]", "result": 60.9, "unit": "% WT"}, {"measurement": "Binding Reactivity (% WT)", "setting": "[16]", "result": 85.3, "unit": "% WT"}, {"measurement": "Binding Reactivity (% WT)", "setting": "[17]", "result": 67.5, "unit": "% WT"}, {"measurement": "Binding Reactivity (% WT)", "setting": "[18]", "result": 84.7, "unit": "% WT"}, {"measurement": "Binding Reactivity (% WT)", "setting": "[19]", "result": 69.7, "unit": "% WT"}, {"measurement": "Binding Reactivity (% WT)", "setting": "[20]", "result": 102, "unit": "% WT"}, {"measurement": "Binding Reactivity (% WT)", "setting": "[21]", "result": 0, "unit": "% WT"}, {"measurement": "Binding Reactivity (% WT)", "setting": "[22]", "result": 71.1, "unit": "% WT"}, {"measurement": "Binding Reactivity (% WT)", "setting": "[23]", "result": 23.2, "unit": "% WT"}, {"measurement": "Binding Reactivity (% WT)", "setting": "[24]", "result": 74, "unit": "% WT"}, {"measurement": "Binding Reactivity (% WT)", "setting": "[25]", "result": 122, "unit": "% WT"}, {"measurement": "Binding Reactivity (% WT)", "setting": "[26]", "result": -0.2, "unit": "% WT"}, {"measurement": "Binding Reactivity (% WT)", "setting": "[27]", "result": 108, "unit": "% WT"}, {"measurement": "Binding Reactivity (% WT)", "setting": "[28]", "result": 4.3, "unit": "% WT"}, {"measurement": "Binding Reactivity (% WT)", "setting": "[29]", "result": 81.8, "unit": "% WT"}, {"measurement": "Binding Reactivity (% WT)", "setting": "[30]", "result": 81.4, "unit": "% WT"}, {"measurement": "Binding Reactivity (% WT)", "setting": "[31]", "result": 11.1, "unit": "% WT"}, {"measurement": "Binding Reactivity (% WT)", "setting": "[32]", "result": 108, "unit": "% WT"}, {"measurement": "Binding Reactivity (% WT)", "setting": "[33]", "result": 109, "unit": "% WT"}]}, {"substance": "CHIKV mAb CHKV-88 (antibody)", "values": [{"measurement": "Binding Reactivity (% WT)", "setting": "[1]", "result": 84.8, "unit": "% WT"}, {"measurement": "Binding Reactivity (% WT)", "setting": "[2]", "result": 23.6, "unit": "% WT"}, {"measurement": "Binding Reactivity (% WT)", "setting": "[3]", "result": 95.4, "unit": "% WT"}, {"measurement": "Binding Reactivity (% WT)", "setting": "[4]", "result": 38.8, "unit": "% WT"}, {"measurement": "Binding Reactivity (% WT)", "setting": "[5]", "result": 103, "unit": "% WT"}, {"measurement": "Binding Reactivity (% WT)", "setting": "[6]", "result": 119, "unit": "% WT"}, {"measurement": "Binding Reactivity (% WT)", "setting": "[7]", "result": 108, "unit": "% WT"}, {"measurement": "Binding Reactivity (% WT)", "setting": "[8]", "result": 94.7, "unit": "% WT"}, {"measurement": "Binding Reactivity (% WT)", "setting": "[9]", "result": 83.8, "unit": "% WT"}, {"measurement": "Binding Reactivity (% WT)", "setting": "[10]", "result": 61.5, "unit": "% WT"}, {"measurement": "Binding Reactivity (% WT)", "setting": "[11]", "result": 44.5, "unit": "% WT"}, {"measurement": "Binding Reactivity (% WT)", "setting": "[12]", "result": 105, "unit": "% WT"}, {"measurement": "Binding Reactivity (% WT)", "setting": "[13]", "result": 110, "unit": "% WT"}, {"measurement": "Binding Reactivity (% WT)", "setting": "[14]", "result": 120, "unit": "% WT"}, {"measurement": "Binding Reactivity (% WT)", "setting": "[15]", "result": 84.6, "unit": "% WT"}, {"measurement": "Binding Reactivity (% WT)", "setting": "[16]", "result": 96.9, "unit": "% WT"}, {"measurement": "Binding Reactivity (% WT)", "setting": "[17]", "result": 65.3, "unit": "% WT"}, {"measurement": "Binding Reactivity (% WT)", "setting": "[18]", "result": 100, "unit": "% WT"}, {"measurement": "Binding Reactivity (% WT)", "setting": "[19]", "result": 85, "unit": "% WT"}, {"measurement": "Binding Reactivity (% WT)", "setting": "[20]", "result": 106, "unit": "% WT"}, {"measurement": "Binding Reactivity (% WT)", "setting": "[21]", "result": 3.7, "unit": "% WT"}, {"measurement": "Binding Reactivity (% WT)", "setting": "[22]", "result": 87.9, "unit": "% WT"}, {"measurement": "Binding Reactivity (% WT)", "setting": "[23]", "result": 50.9, "unit": "% WT"}, {"measurement": "Binding Reactivity (% WT)", "setting": "[24]", "result": 56.5, "unit": "% WT"}, {"measurement": "Binding Reactivity (% WT)", "setting": "[25]", "result": 111, "unit": "% WT"}, {"measurement": "Binding Reactivity (% WT)", "setting": "[26]", "result": -0.1, "unit": "% WT"}, {"measurement": "Binding Reactivity (% WT)", "setting": "[27]", "result": 124, "unit": "% WT"}, {"measurement": "Binding Reactivity (% WT)", "setting": "[28]", "result": 25.1, "unit": "% WT"}, {"measurement": "Binding Reactivity (% WT)", "setting": "[29]", "result": 112, "unit": "% WT"}, {"measurement": "Binding Reactivity (% WT)", "setting": "[30]", "result": 121, "unit": "% WT"}, {"measurement": "Binding Reactivity (% WT)", "setting": "[31]", "result": 37.5, "unit": "% WT"}, {"measurement": "Binding Reactivity (% WT)", "setting": "[32]", "result": 106, "unit": "% WT"}, {"measurement": "Binding Reactivity (% WT)", "setting": "[33]", "result": 124, "unit": "% WT"}]}]}
